According to doi:10.1101/2024.08.16.608213:

T1: SPM-1 beta-lactamase (Pseudomonas aeruginosa, UniProt Q8G9Q0 29-276)
T1 sequence: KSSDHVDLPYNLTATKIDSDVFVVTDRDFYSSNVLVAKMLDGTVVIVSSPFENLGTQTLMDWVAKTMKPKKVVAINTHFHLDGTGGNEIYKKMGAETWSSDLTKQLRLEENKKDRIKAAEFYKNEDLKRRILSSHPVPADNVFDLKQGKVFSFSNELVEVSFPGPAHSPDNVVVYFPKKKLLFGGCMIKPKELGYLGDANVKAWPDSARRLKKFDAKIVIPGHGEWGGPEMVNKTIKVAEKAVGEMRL


Columns and labels:
VIM-1 beta-lactamase = VIM-1 beta-lactamase (UniProt A0A0F7KYQ8 21-266); test: EMSA
NDM-1 beta-lactamase = NDM-1 beta-lactamase (UniProt C7C422 29-270); test: EMSA
Chain of NDM-1 beta-lactamase (C7C422 29-270): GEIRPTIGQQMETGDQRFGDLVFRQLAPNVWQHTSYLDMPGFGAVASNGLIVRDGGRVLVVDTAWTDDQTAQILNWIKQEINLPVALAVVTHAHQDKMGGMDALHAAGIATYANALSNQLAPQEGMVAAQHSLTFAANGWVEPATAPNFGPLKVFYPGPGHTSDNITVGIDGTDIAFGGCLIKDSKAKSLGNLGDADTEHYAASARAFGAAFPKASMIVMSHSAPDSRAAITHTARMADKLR

IMP-1 beta-lactamase = IMP-1 beta-lactamase (UniProt P52699 19-246); test: EMSA
Chain of IMP-1 beta-lactamase (P52699 19-246): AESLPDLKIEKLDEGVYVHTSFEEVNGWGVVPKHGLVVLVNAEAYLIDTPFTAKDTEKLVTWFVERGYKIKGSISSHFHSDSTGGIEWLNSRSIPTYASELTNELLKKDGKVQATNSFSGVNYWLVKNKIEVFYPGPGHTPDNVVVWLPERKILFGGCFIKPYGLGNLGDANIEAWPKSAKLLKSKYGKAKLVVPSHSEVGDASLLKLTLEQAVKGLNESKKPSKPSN

SPM-1 beta-lactamase [1] = target: T1, SPM-1 beta-lactamase; test: EMSA
SPM-1 beta-lactamase [2] = target: T1, SPM-1 beta-lactamase; test: NMR

Binder	binding result (VIM-1 beta-lactamase)	binding result (NDM-1 beta-lactamase)	binding result (IMP-1 beta-lactamase)	binding result (SPM-1 beta-lactamase [1])	binding result (SPM-1 beta-lactamase [2])
GGGAGAUGCUAGAGAUUCGGUGGGACACCCGUCUCCC (XNA, 2'-fluoro at all pyrimidines (C, U)) [S25 2'-FY]	no binding	no binding	no binding	binds	–
GGGAGAUGCUAGAGAUUCGGUGGGACACCCGUCUCCC (structured_RNA) [S25 RNA]	–	–	–	–	binds
GGGAGAUGCUAGAGAUUCGGUGGGACACCCUUCUCCC (structured_RNA) [S30 RNA (S25 G31U)]	–	–	–	–	binds
